Source: the RNAGym collection of RNA variant scans (doi:10.1073/pnas.2313332121)
This sample holds only a part of the variants without activity.

B1: TPR 5TU (parent)
chain: GGAUCUUCUCGAUCUAACAAAAAAGACAAAUCUGCCACAAAGCUUGAGAGCAUCUUCGGAUGCAGAGGCGGCAGCCUUCGGUGGCGCGAUAGCGCCAACGUUCUCAACUAUGACACGCAAAACGCGUGCUCCGUUGAAUGGAGUUUAUCAUG

Variants of: B1
Experiment: polymerase ribozyme fitness, log enrichment relative to wild type (log ratio); higher = more active; in vitro selection for triplet polymerase activity
How it was run: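 One round of in vitro selection, in triplicate, was applied to PCR-built, transcribed mutant libraries of each subunit of a heterodimeric triplet polymerase ribozyme. The steps were annealing with a biotinylated primer, partner subunit and triplets, incubation frozen at −7 °C, gel excision of extended constructs, streptavidin-bead capture and RT-PCR. Fitness is the logarithm, base 2, of genotype enrichment over wild-type enrichment from inverse-variance-weighted replicate averages of Illumina-sequenced inputs and outputs, keeping genotypes with ≥10 input reads and ≥1 read per output.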

Point of comparison: A20U C85G C125A U145C, “polymerase ribozyme fitness (log ratio)” value -3.41. Against it:
- A20G A47C G48C G50C U56C C87A C95G U139A G141A — lower, -4.1
- A20U C36A A41G U56A G65U A119G U127C — lower, ≤ -4.2
- A20U A89U — higher, -2.12
- A20G C38U A47C A60G C93U A106G G128U — lower, ≤ -4.2
- A20U C35U G59C C75U C87U C99U A137U A138U — lower, ≤ -4.2
- A20C U104G A107C U145G — lower, ≤ -4.2
- A20G C51U — higher, -0.842
- A21C A22U G86U U102C C116U A122G A138U — lower, ≤ -4.2
- A20C G42C G50U G84A C99A — lower, ≤ -4.2
- A20C C76A A119U — higher, -1
- A20U C32G U56G G81A C93U A107G C131U C132G U135G A147G — lower, ≤ -4.2
- A20U A73G C79A C96G — lower, ≤ -4.2
- A20C G94A G136U — lower, -3.83
- A20U G46C U56A C96U U135C A147G — lower, ≤ -4.2
- A20U C51U G83A C93G C96U C103A C105A — lower, ≤ -4.2
- A20G A28G U90A C93A C95G A106U C123U — lower, ≤ -4.2
- A20U U31G C43G A52U A73C C93U G94U C116G A121G C149U — lower, ≤ -4.2
- A20C C63U G88C C95U — lower, ≤ -4.2
- A20G C27G G67C U78G A89U C93G G124A U151G — lower, ≤ -4.2
- A20U U44G G46A G59C C96A A115C — lower, ≤ -4.2
- A20G U102G A107U C116U A142U — lower, ≤ -4.2
- A20G U55A C96A U104G — higher, -2.4
- A20G A91G U146A — lower, -3.96
- A20C G136A — higher, -0.55
- A21C A52C G68A U101G — lower, ≤ -4.2
- A21C A26C G71C C76G C87A C108U — lower, ≤ -4.2
- A20G G58A G81C A142C — higher, -1.55
- A20U G48A G84A G152C — lower, ≤ -4.2
- A20G G25A A49G C54U C76U G84A A122U U145G — lower, ≤ -4.2
- A20U A23C C79U G94C C95U U148A — lower, ≤ -4.2
- A20U A52C C54U G88U A107U C116A — lower, ≤ -4.2
- A21C A22U C54U A73G A89G — higher, -1.48
- A20U U56A — higher, -1.87
- A20U A22U A121U G128A C129U A137C A138C — lower, ≤ -4.2
- A20G C57U G62C G136U — within 0.2 log units, -3.44
- A20U U55G C93G G94C A142G — lower, ≤ -4.2
- A20U C38U C75A C87G A107U C132U — lower, ≤ -4.2
- A20U A28U C96G — lower, ≤ -4.2
- A20U U53A U55A C118G — lower, -3.98
- A20C C85U A115U — higher, -1.06
- A20G U53A U56A G58A C69U C93U — within 0.2 log units, -3.35
- A20C U101G C149U — higher, -1.64
- A20C C79A G94C — lower, ≤ -4.2
- A20U A28U A39U G83A G141A — lower, -4.1
- A21C A60G A73U C93G A137U — lower, ≤ -4.2
- A20U U31C A49C C57U A60G G62C C96A — lower, -4.15
- A20G A24G C51U C85U A120U C149G — lower, ≤ -4.2
- A20C C85A G126C U144A — higher, -0.594
- A20U U56A A73G G94A U101A — higher, -2.45
- A21C A24U A40G U144A — lower, -3.76
- A20U A40U C69A — higher, -2.77
- A20U U45A G48U A64G A137U — lower, ≤ -4.2
- A20U A29C A30G C54A G67C G80U C93U G94A A97C C99U — lower, ≤ -4.2
- A20G U31G G86A — higher, -1.52
- A20U C27A C38G C54U C79U G112A — lower, ≤ -4.2
- A20G G83A G88C C93G G100A C149U — lower, ≤ -4.2
- A20U G83A C96G C118U U134A U144A — within 0.2 log units, -3.46
- A20C G86A — higher, -2.24
- A20C U56G G92U — higher, -0.962
- A21C A37C G84A — higher, 0.0671
- A20C C96U — higher, -1.24
- A20G G68U C85U — lower, ≤ -4.2
- A20G A107G C116G A122G G124A G128C — lower, ≤ -4.2
- A20U A30U A37U C51G C93U C95A C96G C116G — lower, ≤ -4.2
- A20G C125A — higher, -0.707
- A20U A39C — lower, -3.84
- A20U U31G U55A A73G C85G C87G U135C U148C — lower, ≤ -4.2
- A20U G83U U90G C99A A107U U148A — lower, ≤ -4.2
- A21C A41U C76U G84A C95U U111G — lower, -4.18
- A20C C99G — higher, -1.06
- A20U C54G C87U A115G C149U — lower, ≤ -4.2
- A20C G83U A89U A97U — higher, -2.13
- A20C C85U G86U C93A A119U A121G — higher, -1.77
- A21C A66G — lower, -3.91
- A20C G50U G81C C103U A120U — higher, -2
- A20U A30U C76U A89G A91C A122G U134G — lower, ≤ -4.2
- A20C U56A C75U — higher, -0.244
- A20U C35A A41C C95U U145A — lower, ≤ -4.2
- A20G A22U C87U — higher, -2.33
- A20G G80C U82A G100A U135C — lower, ≤ -4.2
- A21C A26U A60C G70C G81A G84U G92A A115U — lower, ≤ -4.2
- A21C A73U A107C A121U C149U — lower, ≤ -4.2
- A20G C76A U90G A97G G136C — lower, ≤ -4.2
